{"source": "paper doi:10.1101/2019.12.24.886648", "target": "endogenous Sec22b (rat) (rat (endogenous in PC12 and in rat hippocampal neurons)) (UniProt Q4KM74)", "sequence (Q4KM74 whole entry)": "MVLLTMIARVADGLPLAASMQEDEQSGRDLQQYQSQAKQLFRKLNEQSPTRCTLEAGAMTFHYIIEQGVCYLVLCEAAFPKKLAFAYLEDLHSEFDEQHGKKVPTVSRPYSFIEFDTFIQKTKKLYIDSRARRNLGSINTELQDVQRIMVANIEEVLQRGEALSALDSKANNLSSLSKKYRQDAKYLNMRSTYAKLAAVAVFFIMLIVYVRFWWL", "experiment": "proximity ligation"}
{"substance": "endogenous E-Syt2 (rat hippocampal neurons) (natural protein)", "values": [{"measurement": "PLA signal normalized for the area, cell bodies", "value": 2.85, "unit": "%"}, {"measurement": "PLA signal normalized for the area, growth cones", "value": 7.64, "unit": "%"}, {"measurement": "PLA signal normalized for the area, neurites", "value": 5.53, "unit": "%"}]}
